# Experimental data published in article PMC9122495, “Seipin transmembrane segments critically function in triglyceride nucleation and lipid droplet budding from the membrane” (eLife, 2022).
# Target: the molecule itself
# Experiment: cryo-EM structure; LDAF1-FLAG/seipin (1–310) sample in PMAL C8, 25 mM HEPES pH 7.4, 150 mM NaCl, 2 mg/ml, PEGylated with MS(PEG)12; 3D classification without symmetry; one class with the luminal domains used; TM region at low resolution
protein,measurement,value
"seipin (1–310) (domain or fragment, human, UniProt Q96G97 1-310, looked up, seipin, human, residues 1-310; No tag is stated for seipin; It was purified through the FLAG tag of co-expressed LDAF1; The sample was treated with MS(PEG)12 methyl-PEG-NHS-ester before cryo-EM; The introduction calls human seipin an undecamer, citing other work; also called human seipin) MVNDPPVPALLWAQEVGQVLAGRARRLLLQFGVLFCTILLLLWVSVFLYGSFYYSYMPTVSHLSPVHFYYRTDCDSSTTSLCSFPVANVSLTKGGRDRVLMYGQPYRVTLELELPESPVNQDLGMFLVTISCYTRGGRIISTSSRSVMLHYRSDLLQMLDTLVFSSLLLFGFAEQKQLLEVELYADYRENSYVPTTGAIIEIHSKRIQLYGAYLRIHAHFTGLRYLLYNFPMTCAFIGVASNFTFLSVIVLFSYMQWVWGGIWPRHRFSLQVNIRKRDNSRKEVQRRISAHQPGPEGQEESTPQSDVTED",binding result,binds
